{
  "source": "patent US20060121047A1",
  "about": "“Use of hmgb polypetides for increasing immune responses” (priority 2002, published 2006)",
  "molecules": {"B1": {"name": "B box: Recombinant GST-system human HMGB1 mutant containing only the B box, 74 amino acids, SEQ ID NO: 20 (protein, listed as Homo sapiens)", "chain": "FKDPNAPKRLPSAFFLFCSEYRPKIKGEHPGLSIGDVAKKLGEMWNNTAADDKQPYEKKAAKLKEKYEKDIAAY", "modifications": "GST system"}},
  "key": {"RAW 264.7 cells [1]": {"test_system": "RAW 264.7 cells", "assay": "IL-1β release from RAW 264.7 cells (ELISA)", "format": "cell-based, murine", "settings": "B box 0-10 μg/ml, 8 hours (FIG. 2B)", "procedure": "Murine macrophage-like RAW 264.7 cells (American Type Culture Collection, Rockville, Md.) were cultured in RPMI 1640 medium (Life Technologies, Grand Island N.Y.) supplemented with 10% fetal bovine serum (Gemini, Catabasas, Calif.), penicillin and streptomycin (Life Technologies) and were used at 90% confluence in serum-free Opti-MEM I medium (Life Technologies, Grand Island, N.Y.). […] Polymyxin B was not used in experiments of synthetic peptide studies.\nTo further examine the effect of HMGB1 B box on cytokine production, varying amounts of HMGB1 B box were evaluated for the effects on TNF, IL-1B, and IL-6 production in murine macrophage-like RAW 264.7 cells. Conditioned media were harvested and measured for TNF, IL-1β and IL-6 levels. TNF levels were measured as described herein, and IL-1β and IL-6 levels were measured using the mouse IL-1β and IL-6 enzyme-linked immunosorbent assay (ELISA) kits (R&D System Inc., Minneapolis, 1) and N>5 for all experiments."}, "RAW 264.7 cells [2]": {"test_system": "RAW 264.7 cells", "assay": "TNF mRNA expression in RAW 264.7 cells (RNase protection assay)", "format": "cell-based, murine", "settings": "10 μg/ml", "procedure": "The kinetics of B box-induced TNF release was also examined. TNF release and TNF mRNA expression was measured in RAW 264.7 cells induced by B box polypeptide or GST tag polypeptide only used as a control (vector) (10 μg/ml) for 0 to 48 hours. Supernatants were analyzed for TNF protein levels by an L929 cytotoxicity assay (N=3-5) as described herein. For mRNA measurement, cells were plated in 100 mm plate and treated in Opti-MEM I medium containing B box polypeptide or the vector alone for 0, 4, 8, or 24 hours, as indicated in FIG. 2D. The vector only sample was assayed at the 4 hour time point. Cells were scraped off the plate and total RNA was isolated by RNAzol B method in accordance with the manufacturer's instructions (Tel-Test “B”, Inc., Friendswood, Tex.). TNF (287 bp) was measured by RNase protection assay (Ambion, Austin, Tex.). Equal loading and the integrity of RNA was verified by ethidium bromide staining of the RNA sample on agarose-formaldehyde gel. […] TNF mRNA expression was maximal at 4 hours and decreased at 8 and 24 hours. […] A similar study was carried out measuring TNF protein released from RAW 264.7 cells 0, 4, 8, 24, 32 or 48 hours after administration of B box or vector only (GST tag), using the L929 cytotoxicity assay described herein. […] Data are representative of three separate experiments."}, "[3]": {"test_system": "D-galactosamine-sensitized Balb/c mice", "assay": "Toxicity (survival) in D-galactosamine-sensitized Balb/c mice", "format": "in vivo", "settings": "for Alive/total: survival monitored up to 7 days", "excerpt": "Male 6-8 week old Balb/c and C3H/HeJ mice were purchased from Harlen Sprague-Dawley (Indianapolis, Ind.) and were allowed to acclimate for 7 days before use in experiments. All animals were housed in the North Shore University Hospital Animal Facility under standard temperature, and a light and dark cycle.\nThe D-galactosamine-sensitized model has been described previously (Galanos et al., Proc Natl. Acad. Sci. USA 76: 5939-5943, 1979; and Lehmann et al., J. Exp. Med. 165: 657663, 1997). Mice were injected intraperitoneally with 20 mg D-galactosamine-HCL (Sigma)/mouse (in 200 μl PBS) and 0.1 or 1 mg of either HMGB1 B box or vector protein (in 200 μl PBS).\nTo investigate whether the HMGB1 B box has cytokine activity in vivo, we administered HMGB1 B box protein to unanesthetized Balb/c mice sensitized with D-galactosamine (D-gal), a model that is widely used to study cytokine toxicity (Galanos et al., supra). Briefly, mice (20-25 gram, male, Harlan Sprague-Dawley, Indianapolis, IN) were intraperitoneally injected with D-gal (20 mg) (Sigma) and B box (0.1 mg/ml/mouse or 1 mg/ml/mouse) or GST tag (vector; 0.1 mg/ml/mouse or 1 mg/ml/mouse), as indicated in Table 1. […]"}, "[4]": {"test_system": "D-galactosamine-sensitized Balb/c mice", "assay": "Histology of organs of D-galactosamine-sensitized Balb/c mice", "format": "in vivo", "settings": "1 mg/mouse i.p. plus D-gal, 7 hours", "procedure": "(§1) To further assess the lethality of the HMGB1 B box protein in vivo the HMGB1 B box was again administered to D-galactosamine-sensitized Balb/c mice. Mice (3 per group) received D-gal (20 mg/mouse) plus B box or vector (1 mg/mouse) intraperitoneally for 7 hours and were then sacrificed by decapitation. Blood was collected, and organs (liver, heart, kidney and lung) were harvested and fixed in 10% formaldehyde. Tissue sections were prepared with hematoxylin and eosin staining for histological evaluation (Criterion Inc., Vancouver, Canada). […] In FIG. 4J, hepatocyte dropouts are seen surrounded by accumulated polymorphonuclear leukocytes. The arrows in FIG. 4J point to the sites of polymorphonuclear accumulation (dotted) or apoptotic hepatocytes (solid)."}, "[5]": {"test_system": "D-galactosamine-sensitized Balb/c mice", "assay": "Serum cytokine levels in D-galactosamine-sensitized Balb/c mice", "format": "in vivo", "settings": "1 mg/mouse i.p. plus D-gal, 7 hours", "procedure": "as §1"}},
  "note": "Marks after values point to notes of the source that are not given here.",
  "data": [
    {"molecule": "B1", "values": [
      {"measurement": "IL-1β release, dose dependence", "setting": "RAW 264.7 cells [1]", "value": "addition of 1 μg/ml or 10 μg/ml of B box resulted in increased release"},
      {"measurement": "IL-1β release, dose dependence", "setting": "RAW 264.7 cells [1]; listed as HMGB1 B box", "value": "dose-dependently stimulated release"},
      {"measurement": "time of maximal TNF mRNA expression", "setting": "RAW 264.7 cells [2]", "value": 4, "unit": "h"},
      {"measurement": "TNF mRNA expression", "setting": "RAW 264.7 cells [2]; 0, 4, 8 or 24 hours (vector at 4 hours) (FIG. 2D)", "value": "increased significantly"},
      {"measurement": "Alive/total", "setting": "[3]; 0.1 mg/mouse i.p. with D-gal 20 mg", "value": "6/6"},
      {"measurement": "Alive/total", "setting": "[3]; 1 mg/mouse i.p. with D-gal 20 mg", "value": "2/8*"},
      {"measurement": "lethality", "setting": "[3]; 0.1 or 1 mg/mouse i.p.", "value": "lethal to D-galactosamine-sensitized mice in a dose-dependent manner"},
      {"measurement": "time of death", "setting": "[3]; instances in which death occurred", "value": "≤ 12", "unit": "h"},
      {"measurement": "late deaths among survivors", "setting": "[3]; survivors followed for 2 weeks", "value": "no later deaths from B box toxicity were observed"},
      {"measurement": "histology of heart", "setting": "[4]", "value": "some ischemic changes and loss of cross striation in myocardial fibers"},
      {"measurement": "histology of kidneys and lungs", "setting": "[4]", "value": "no abnormality"},
      {"measurement": "histology of liver", "setting": "[4]", "value": "active hepatitis"},
      {"measurement": "serum levels of IL-1β", "setting": "[5]", "value": "15+3 pg/ml"},
      {"measurement": "serum levels of IL-6", "setting": "[5]", "value": "315+93 pg/ml"}
    ]}
  ]
}
